Laboratory results taken from the RNAGym collection of RNA variant scans (doi:10.1073/pnas.2313332121).
Variants at the floor of the assay were thinned out.

B1: TPR 5TU (parent)
chain: GGAUCUUCUCGAUCUAACAAAAAAGACAAAUCUGCCACAAAGCUUGAGAGCAUCUUCGGAUGCAGAGGCGGCAGCCUUCGGUGGCGCGAUAGCGCCAACGUUCUCAACUAUGACACGCAAAACGCGUGCUCCGUUGAAUGGAGUUUAUCAUG

Variants of: B1
Test: polymerase ribozyme fitness, log enrichment relative to wild type (log ratio); higher = more active; in vitro selection for triplet polymerase activity
Summary of the method: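 One round of in vitro selection, in triplicate, was applied to PCR-built, transcribed mutant libraries of each subunit of a heterodimeric triplet polymerase ribozyme. The steps were annealing with a biotinylated primer, partner subunit and triplets, incubation frozen at −7 °C, gel excision of extended constructs, streptavidin-bead capture and RT-PCR. Fitness is the logarithm, base 2, of genotype enrichment over wild-type enrichment from inverse-variance-weighted replicate averages of Illumina-sequenced inputs and outputs, keeping genotypes with ≥10 input reads and ≥1 read per output.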

Variant | polymerase ribozyme fitness (log ratio)
C36U G59A U82G A97U | -1.3
C35U G58C U90G U104A G126A U135A U145G | ≤ -4.2
C35U G86U | -1.43
C36G G84A | -4.19
C36U G58A C87A C131U G143A | ≤ -4.2
A37C U77C G92A C96A U139C | ≤ -4.2
C36U A52G U61A C95A A122U U144A | ≤ -4.2
A37C A49G C87U A115C | -3.32
A37C A49C C54A U78G C93U G124A | ≤ -4.2
C35U C38A G83U G152A | ≤ -4.2
C35U A49C C79A C87A A119U | ≤ -4.2
C35U G59A G83U A98C G128C | -3.94
A37C C103G | -3.6
C35U G58A A60C C93G C96U C105U C116U | ≤ -4.2
C36A A66C | ≤ -4.2
C35U C93A C103G | ≤ -4.2
C36A C75U C95A C129G | ≤ -4.2
C35G G68C C125A | -4.18
C36A C85U A89U C96G | ≤ -4.2
C35G G83A A89C A142U | ≤ -4.2
C36G C95U | -3.45
C35U G94A C108A A150U | ≤ -4.2
C36A C79U | ≤ -4.2
C35U U55A G84U A147C | -2.79

Variant | polymerase ribozyme fitness (log ratio)
C35G U55G G81A A98G U102A | ≤ -4.2
C35G G86A A120C C125U G143C | ≤ -4.2
C35U C149U | -1.57
A37C G86A | -1.34
C36A A98U A113U C118U U148A | ≤ -4.2
A37C C116G | -0.143
C36U C69G A73G C87A G100U G112C G141C | ≤ -4.2
C36G G86A G117U U130A G140A | ≤ -4.2
C35G U55G C85G U144A | ≤ -4.2
C36U G59C C131U | -0.515
C35U C79A G81U C93A U102A U127A | ≤ -4.2
C36U C87G | ≤ -4.2
C36G A97G | -3.56
C36U C87U G126A | -2.05
C36A C75A C87G A106U C149G | ≤ -4.2
C35G U78G C99A | ≤ -4.2
A37C C57A | 0.0979
A37C C38U U145C | 0.0837
C35U U55G A91G A106G G141A | ≤ -4.2
A37C C96G U101G A150C U151A | ≤ -4.2
C36U A40G C43G U55A A91C G126A G141U | ≤ -4.2
C36U G59C C95A | -1.64
C35U A73U G88U C108G | ≤ -4.2
C35U C96G | -0.818

Variant | polymerase ribozyme fitness (log ratio)
C35U C96U | -0.126
C35U G50U U56A G68A C85U A137C | ≤ -4.2
C36A A52C C85G A120G A122U U148A | -3.85
C36A A47C G59U | ≤ -4.2
C36U C75G C96G A121U | ≤ -4.2
A37C G80C G92A C129A | ≤ -4.2
C36U G62A C72U | -3.23
A37C A52U C96A | -2.87
C35U A49G G50A U77G C96U G143C A150G U151A | ≤ -4.2
A37C G83U C93G A97G G100U | ≤ -4.2
C35U G42A G65C U77G C87A U101G G143A U151A | ≤ -4.2
C35U G92A C96A | ≤ -4.2
A37C | 0.064
C35U G92U | -0.627
C35U A47G C99G G152A | -3.48
C35U G59C G81A G83A A110G G133C | ≤ -4.2
C36U C51G U55A G67A C93U | ≤ -4.2
C35U A47C G80U C87U | -3.9
C36A G59A U144G | -3.49
C36G U145A | -3.88
C35G G59A C85A A106G G126U | ≤ -4.2
C36U G94A C125A | -1.63
C36U C54A G58A G70A G84A C95A A115U G143U | ≤ -4.2
A37C U53A U78A C85A | ≤ -4.2

Variant | polymerase ribozyme fitness (log ratio)
C36A U55A A64U C96A C118G | ≤ -4.2
A37C C95U G141C | -1.7
C35U G50A C87G G124A | -3.99
C35G G84A U104G U109G G140U | ≤ -4.2
A37C G83U | -0.441
C35U A52C C123U | -1.31
C36A U82A U90G A98C | ≤ -4.2
C35U C118U | -0.573
C36A C54G C57A G86A U139G | ≤ -4.2
C35U U61A A66C C69U | ≤ -4.2
C35U A115U | -1.54
C35U G46A A119G A121U | -1.45
A37C C93U G136C G141U | -3.34
C36A C85U | -3.7
C36G G59U C105G | ≤ -4.2
C35U G58C G71A C93G | -3.09
A37C C43U A73C U77C C93U C116A U135G G136U | ≤ -4.2
C36G G65A G83A A98C | ≤ -4.2
A37C A47U G58A U61G A91G A107C A113G A138U | ≤ -4.2
A37C A60C C85U G126C U146C | -2.23
C36U G58U G94A C105U C125U U135C | -3.89
C35U A106U A142U | -4.15
C36A C96A G133A | ≤ -4.2
C36A A39C U56C C87U U144G | ≤ -4.2

Variant | polymerase ribozyme fitness (log ratio)
C35U C99G A119C G141U | -1.83
C36A U45A C87G A91G | ≤ -4.2
C35U G88A A115C A119G | -3.86
A37C C93A | -2.8
A37C C93U | -1.64
C35U C93A A120C G126A A150U | -4
A37C G92C G124C | -2.65
A37C C85U G88C A137U | ≤ -4.2
C36U U55A | -0.574
A37C U55A C96U A113U A137U | -4.18
C36U G141U A142C | ≤ -4.2
C36U U77G A98U U134A | ≤ -4.2
C35U A52C C85U G117U | -2.29
C36U G42A C76U G143A | ≤ -4.2
C36G C87G A91C A98U C114U A119U A122G | ≤ -4.2
C36U A142G | -2.16
A37C A40C G48C G74A G94A G126C G133A G136A A150U | ≤ -4.2
C36A U56A C57A A122G U127C | ≤ -4.2
C35G G62A G68A C69G G71C C72A A73G G74C A91C C114U C132U | ≤ -4.2
C36A C96U U111G | ≤ -4.2
A37C G94U A98U | -1.16
C36A U56G C85U C93U G94C | ≤ -4.2
A37C C75G G80A C149G | ≤ -4.2
C35U U101G A110U A138G | ≤ -4.2

Variant | polymerase ribozyme fitness (log ratio)
C36A C105U U127G | ≤ -4.2
C35U C38G G86A G126A G136U | ≤ -4.2
C35U U56A C57A A97U C123U U130C | -0.0554
C36A A121U | -3.23
C35U G124U | -1.25
C36U A41G G83C G84U C116U | -4.09
C35U G141A | 0.194
C35U G71U | -3.53
C36A U45A U61A C87U A97C G126A | ≤ -4.2
C36G G83U C125A G141C U145A | -4.09
C35U C95G | -1.22
C35U C85U | -0.375
C35U C85A | -1.42
C35U G81U U82G G88U G94U U139C C149A | ≤ -4.2
C36G U146G | -3.97
C36U C54A C95G C108U U109C C116U | ≤ -4.2
A37C U56A U90A C103G A121U C123U G141C | ≤ -4.2
C36A G62C C63U | ≤ -4.2
C35U C38G U56A | -1.43
C36G C54U G92A A110G G143A | ≤ -4.2
C36A C93U G100U | ≤ -4.2
C35U A40G C51U G81C C87A | ≤ -4.2
C36U G92C C116U C118U U144C | ≤ -4.2
C36G C99G C132U U146C | -4.06

Variant | polymerase ribozyme fitness (log ratio)
C35G U55G U61A C79G C93G A107G | ≤ -4.2
C35U U55A C96U | -0.218
C36A A64U A107U U139A G140C | ≤ -4.2
C35U G136A G143U | -3.68
C35U C95U C96G | -1.52
C36U U44A A122C | -4.15
A37C G48A C51U G86C G88A | ≤ -4.2
C36U C54U C87U C96G U146G G152A | ≤ -4.2
A37C A97U | -0.373
C35G U139C | ≤ -4.2
C35U A49G A97G A119C | -2.09
C36U A60C C63U C103G | ≤ -4.2
A37C G70C C87U U127C | ≤ -4.2
A37C A41C U53G G59A G84A C103A U145A | ≤ -4.2
C36U C72U | -0.573
C35U G117U | 0.973
C36U C38U G83A A121U | -1.34
A37C U55A G133C U144A | -2.6
C36A A73G C96U A121C C131U | ≤ -4.2
C35U A49G G88U C93G | ≤ -4.2
C36G G62C G84U | ≤ -4.2
C35U A52C G81A G86U C95A | ≤ -4.2
A37C G62U G86U G100C A107G | ≤ -4.2
